Protein production data for 15 sequences are collected here from a protein production outcome set (Wang et al. 2014).

A short description of the series: label from the status in PepcDB records.
For the sequence “MTENTNFKSGYSEVNGLKMYYEIHGEGKPLVLIHGGGSTIKTSFGNILPLLLKSRQIIVMELQAHGHTGDRETDLTFEQDADDVAKLLENLQITKADFLGFSNGGHTTIEIALRHKKIVDKILLASAFYKRDAVVPEFWDGFDSATLEMMPKVLQEGYLKANDDEKGLLNMFKKDVQKMKDFKGWTDEQMKSITAKTLIINGNNDVGSIEHAVEMYRILPNCELAILPGGHGTYLGAIESLPNGEWTMKYVAELIEEFFDKH”, the protein production entry was “failed”. As for “MTEQHSHQFERGTDGPKVILVGVDGSDSSLHAAAYAAGLARRQHALLAVVYVQPVMAAGAALGVPVADTTDEIAADLVQYIRDATERVKDIFEVRWEFHTFRGDPYNGLVTAADELKADAVVVGASEQAGHRIVGSVAVRLVKAGRWPVTVVP”, the protein production result is reported as “not failed”. “MTETDKKQEQENHAECEDKPKPCCVCKPEKEERDTCILFNGQDSEKCKEFIEKYKECMKGYGFEVPSAN”: the protein production result is reported as “not failed”. As for “MTETKTIRFLSIIGCLLAGMAASCSSRQVAPNEEGISVQKMTGFPEGEPGFSLGVSACYAGIYQGELLIAGGCNFPETPAAEGGKKKFYQGIYAADASADSVFVWRKVGQLPVAAAYGVSVSTPRGIVCVGGSNENGSLSTVYRLSLSDDKQAVIVDTLPSLPCTMDNMSGSVVDYTLFVAGGNVNGKPSNGLYCLNLGNPETGWQQLPDFPGAPRVQPVCVGQRKENETLLYLWGGFSGAFDGRSATLSTDGYCYSPSLQQWQPVSTPIGSDSVPVALGGGAGIALTDSLILCTGGVNKDIFLSALQREEMMKAAVTGGNQAAVDSLKSEAKTYMLHPAEWYRFNDRILIYNTRRDKWEEAVRSQDVARAGAALTTGQGQTFFNINGELKPGIRTPEIAKIMID”, the protein production entry is reported as “failed”. For the sequence “MTEYWVSQGNKWCEFCKIWIQNNPTSIRNHDLGKRHRECVDKKLTDMRERSAAKDKELKKNEKLLQQIEAKATRSYQKDIATAQQVAKANGAPEDGTSDWMLDSASGYYYNQTNGLHYDSQSGFYYSDSIGHWVTQDEAYAAVKTSSGTKVPLVKKPVSSSGAGPSVGKPPGRLVTASLNPKRAVKGAASSVDLGNNKRKRQDEKPKKVSAEEKAALKAREAARKRVEDREKPLLGLYNRPF”, the protein production entry is “failed”. To “MTFGQSIGTCFAKYITFSGRASRPEYWYFFLFLLLGSIAATMLDALLFDAVTTTVETSDTSTSARIENTGPIAPIFSLAVFLPHLAVAFRRMHDTGRSGIYAILPFLLMLCAVLVLVFGVGIASSFAAGGSLDLLFTRATLLLLIPTLAVLFISPLLVLWWLTRPSQPGTNQYGPNPVRAVAS” belongs “failed”; to “MTFGSLFRNQTRTVVKGHIFNLPNSLSILRILLIPWFIYYLDAGQTHIALIIMVVALLSDWFDGQMARWTNEVSDMGKILDPLADKLCLASVALYYLWKGELPVWFVVFVVFRDLVIFLGAAWIRHRHNVLTTSLWPGKWAVGFVSMMFISMVWPLPVFRQWPVKEFFMYLSAATLFYSFVEYCIRFYKIQKGAEFKA”, “failed”; to “MTGALVSSEMMARAAAAAGLSDEADRPGPAPLASPSYLALESASILTDGGVFLKVMHPEMRQDFDLGAAMALARQAGEAGIGPRVLWADPAQGAIAMEALTEAGGWRRAMQVDLQEAPVLGAAMSALKALHATPALSSRFDPFAQIDGLIADYSRLGAPLPEDTGWLRRLIGAAEPVLRTGADLAPCRNDGAASNLMLGPGGAVRLVDYDRAGMNDPLYDVGALLAETTDFEREMQAGFAAYAGAFDEVAFARARLWSFVDDMLHALWSRLKARTSARGGVEWLKYGEWRLMRLRMALNHPQYEQKIRLAGGAA”, “failed”. The value for “MTGASRARMHQLEREGDRPAKRVNKLLSDQETMIGAVLLGNNLINILASALATQVLTTLIPGPWGVAVATAAMTVLILIFAEVLPKTLAIVRSDDVARALSAPTLFIVRLFGPIIYAIQWIVRRTLRVFGVKLDMAVDVLAAHEEIRGAVDYHHSEGLVETDDRRMLGGVLDLSDMDVSEIMVHRKSMVLLDAGLPARELVDAVLEAQHTRIPLYRDQPDNIVGVLHARDLLKALAECPTGVEGLDIAAILREPWFIPDATNLKDQLNAFLKRKNHFALVVDEYGALQGLVTLEDILEEIVGEIEDEHDTTLDGVRRQGDGSVNVDGHVTVRDLNRAMDWRLPEGEAVTIAGLVIHEAQMIPEPGQTFIFYRHRFQVLRRQRNQITALRISARLDDDSDA” was “failed”; that for “MTGFAPQAGLPSHSVQVADHFDGNSPRGSPMSSGGHPVDRNRGLQPQKEAFSGPAAGKPFHPQALSKYSRHYSPEDELSAEAQPIAAYKIVSQSNKQLLAGSVSVTSLSSRTTELATADPFALAPFPSKAGKQKP” was “failed”. With “MTGHIDPTKEVFAQFRANDREGPIHMLNLVRLRPRAAYPDGRETTGAEAYAAYGRDSGPVFERLGGKVVWQGQFELMLIGPQDEHWDHVFIAEYPSVAAFVEMIRDPVYREAVKHRQAAVEDSRLIRLKPLKPGKGFGEIPT”, the protein production entry is reported as “not failed”. The value for “MTGKPLTDYVALGFTALERGDCQEAVNIFRRAQETGPTARSFVGLGLAFHRLGDPPAARWAFAKALDLEPADRDANEWIERIGRPAVPARTSGGRGCRFRAGEDFLQIKENGSWRRFFIKGINLGLGLPGYFPGEYPIHRETYRRWFRLMGELGVNSLRVYAVQSPGFYEALADHNEQGGRLFLFQGIWLELPEDGDFRGRDFLAYAHRQIREAVDSVCGSADFPERPGLPHGSYRRDVSPWTAAYVVGREWESCAVRAFNGRYGRKRGGFAGQFLKVDDGLPFEQWAAEICDYLQSYEHATYDCTHPVTTINWPTLDPLTHPSESTYEEGLIRQGFQVNVDVCNEDEDVETFDPALIASRQGAGFFATYHVYPYYPDFLNNDFLDVENPYREYLKRLRRHHGRQPVVIAEFGVPSSREATHWQRDGWHHGGHDEVSQGKINGYMMEAIRDAGLAGGMLFSWFDEWFKRNWVFLPYELPAERNPFWFNHQDAEQTYGLMAAYPGYPGKVVTLAGRREEWRDASLLQEKRGGAPLHRFGDGRDGARTLVRLSARHDEGFFYLCLETAEPVDFSAAHYLIGLNTCGAKAGETLLPFDTNARSPLGLTFLIHLAGEGASRILVSRFYDKYLNEGLPVRPVPSDTGEWVVMQNITNHRRISKDGTRFYPSRVFSMSGLRFGSLDPQSPRFDSLADWHVSGTLIELRLPWGLLNITDPSSRQVLWMAEQGGKTHTTDGIAAIACSYRPSGEGLAARPTGGRTNLADSLPAGLGSDAVRRYQWERWNHPLYHTYLKRSYYLYRDVLDRMPE” was “failed”; that for “MTGLINAIPATNKDEYKNVGVYIEHRGDELKRPSIEMIGIGKQLARKVNEKLICVVIGDKVDGIAKEVGEYGCDIVLAAESPELAEYRTMPYAEIIGGYIQEYKPNIFLLAATRNGRDLASRIAVKSRTGITADCTVLDIDENRTLLANRPTYGESTLAEILCRNHRPQMATARPGIFPPAEKEKDHKYEVIKKKVDVDKKLLGKQILKFI” was “not failed”. To “MTGSCLCQGIRYEISGHGLGDIIECHCQRCRKANGTAYATNTPVHVDDFKIVQGEHLLKKYQSTPTTQRCFCSECGSPIMSIKTDTPEYYRLRIGTLDTKIEQKPSMHIFAAHKAEWDTITDDLPQYAERP” belongs “failed”; to “MTGVLSGMAKTYLEFSDPNGAEHKFYEVTVDGPELTIRYGRIGTDGQRSTKTFPDAAVAQAEADKKIREKRKKGYEDAVMGARQKRTVVRREVTETRSTTRQIAPVLWRFKTRSAAYGIFVDQNTAWVGNDSGEVFALTLSGEVDRSFRLPDGVKCLVSDQFRTFAGCDDGNVYDLSGKLPFMAYEVESKAALLWLDLHGGTLGVSDSGGGVYAFDAESDQQWGHTDDRASMGWMVRVDARGVYYGHSRGVGMFDRESGFPNWHRPTRGSVLFGWQEGNDLYAGTSANLIQRFTKAGEHVQDYQCDGSVLSCAASPGGEFVFAGDSGSAVYCFNRAGERLWKLGTGCASALSMQFAADKLYIVTTNGTLAAIDVSPAAIEAARQGTTPEVRDVKLAAAMPAQAPATELTVTRNASGGVLLRGVQEGSKVRIRPDDSRFHKDWNVQFPRNLRAADGLYVVDDLEDAGGFYRVVGDLRRLENLEHHHHHH”, “not failed”.
